Reference: paper PMC3570467

Molecular target: a representative mIgG1 mAb (used for the KD determinations; not told which) (mouse)
Assay: SPR; BIAcore 2000; mIgG1 mAb immobilised on CM-5; Z variants serially diluted 250 nM to 64 µM; KD for 1:1 interaction from equilibrium response values

Point of comparison: “ZF5R, Z domain variant with F5R substitution (designed binder)”, Kd 10 µM. Against it:
- ZF5I, Z domain variant with Phe to Ile substitution at position 5 (designed binder) — the same, 10 µM
- wild type Z domain (ZWT), staphylococcal protein A-derived 58-residue three-helix bundle domain (designed binder) — higher, > 100 µM
